Measurements reported in paper PMC6495647.

Target: MucA’ protein (plasmid pKM101 (host species not stated))
Assay: SPR; BIAcore 2000, kinetic analysis at lower ligand densities (577 RU of immobilized β, 1036 RU of immobilized MucA’ on CM5); MucB in the mobile phase; BSA reference cell; apparent constants; data not shown

B1: MucB protein (enzyme)
chain: MFALIDVNGMYASCEQAFRPDLANRAVAVLSNNDGNIVARNYLAKKAGLKMGDPYFKVRPIIERHNIAIFSSNYTLYASMSARFAAVVESLASHVEQYSIDELFVDCKGITAAMSLDAFGRQLREEVRRHTTLVCGVGIARTKTLAKLCNHAAKTWPATGGVVALDDGARLKKLMSILPVAEVWGVGHRTEKALATMGIKTVLDLARADTRLIRKTFGVVLERTVRELRGEACFSLEENPPAKQQIVVSRSFGQRVETLTDMQQAVTGFAARAAEKLRNERQYCRVISVFIRTSPYSVRDTQYANQATEKLTVATQDSRTIIQAAQALARIWREDIAYAKAGVMLADFSGKEAQLDLFDSATPSAGSEALMAVLDGINRRGKNQLFFAGQGIDNSFAMRRQMLSPDYTTDWRSIPIATIK
B1 showed a Kd of 1.99 nM, an amount bound (RU) of 355 RU and a koff of 0.000127 s⁻¹. It also gave a kon of 63900 M⁻¹ s⁻¹.
